This passage reports Kd, koff and kon results from patent US20160083465A1 (AVEO PHARMACEUTICALS, published 2016).

Assay [1] concerns the target T1, mouse IgG1 Fc-mature human GDF15 fusion protein (mFc-rhGDF15) (mouse; human).
T1 construct: Made in CHOK1SV cells, purified by Protein A and size exclusion; also called mouse Fc fused to human GDF15
T1 chain: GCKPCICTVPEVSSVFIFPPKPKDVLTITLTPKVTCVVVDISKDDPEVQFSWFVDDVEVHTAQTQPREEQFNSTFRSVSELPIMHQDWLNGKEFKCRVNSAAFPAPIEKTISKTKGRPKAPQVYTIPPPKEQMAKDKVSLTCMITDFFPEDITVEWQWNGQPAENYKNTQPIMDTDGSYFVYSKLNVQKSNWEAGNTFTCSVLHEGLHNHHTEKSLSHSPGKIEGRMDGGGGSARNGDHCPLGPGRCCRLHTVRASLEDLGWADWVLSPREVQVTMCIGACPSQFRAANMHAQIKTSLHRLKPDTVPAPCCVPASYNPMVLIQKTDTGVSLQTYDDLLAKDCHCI
The experiment in a line: SPR Biacore T100, 37 C, purified antibody captured by anti-human IgG Fc, antigen in solution. How it is done:
(§1) Goat anti-human IgGs (Fc fragment specific, Jackson ImmunoResearch, West Grove, Pa.) were immobilized on carboxymethylated dextran CM4 sensor chips by amine coupling, according to a standard protocol. Analyses were performed at 37° C. using PBS containing 0.05% surfactant P20 as running buffer. The antibodies were captured in individual flow cells at a flow rate of 10 μL/minute. Injection time was varied for each antibody to yield an Rmax between 30 and 60 RU. […] The dissociation phase was monitored for up to 1200 seconds. The surface was then regenerated with two 60-second injections of 10 mM Glycine-HCl, pH 2.25, at a flow rate of 30 μL/minute.
(§2) Kinetic parameters were determined using the kinetic function of the BIAevaluation software (GE Healthcare) with double reference subtraction.
In general terms: SPR reads the build-up and loss of mass on a sensor chip optically.

For assay [2], the target named is T1, mouse IgG1 Fc-mature human GDF15 fusion …. Nature of the assay: SPR Biacore T100, 37 C, antibody from supernatant captured by anti-human IgG Fc, antigen in solution.
Assay [3] has the same target. The experiment in a line: SPR Biacore T100, 37 C, antibody captured by anti-mouse IgG, antigen in solution. How it is done: as §1, with “Rabbit anti-mouse” for “Goat anti-human”, “(GE Healthcare)” for “(Fc fragment specific, Jackson ImmunoResearch, West Grove, Pa.)”, “chips (GE Healthcare)” for “chips”, “RU. 250 μg/mL mouse Fc (Jackson ImmunoResearch, West Grove, Pa.) was injected at 30 μL/minute for 120 seconds to block non-specific binding of capture antibodies to mouse Fc portion of the recombinant GDF15 protein when needed.” for “RU.”, “1500” for “1200”, “1.7,” for “2.25,”
as §2

B1: Hu06C11-30 (antibody, human IgG1, kappa)
heavy: not shown
light: DIQMTQSPSSLSASVGDRVTITCKASQNVGTNVAWFQQKPGKAPKSLIYSASYRYSGVPSRFSGSGSGTDFTLTISSLQPEDFATYYCQQYNNYPLTFGQGTKLEIKRTVAAPSVFIFPPSDEQLKSGTASVVCLLNNFYPREAKVQWKVDNALQSGNSQESVTEQDSKDSTYSLSSTLTLSKADYEKHKVYACEVTHQGLSSPVTKSFNRGEC
notes: Humanized, human IgG1 kappa
On to B1, for which, in assay [1], the Kd (usually the free concentration of one partner at which half of the binding sites on the other are occupied at equilibrium, for simple one-to-one binding) is 180 pM; the koff (as a rule, a measure of how fast the partners let go of each other) stood at 0.00087 s⁻¹; the kon – broadly, the second-order rate constant of association – came out at 4.8e+06 M⁻¹ s⁻¹.

B2: Hu14F11-39 (antibody, human IgG1, kappa)
heavy: not shown
light: DIQMTQSPSSLSASVGDRVTITCKASQNVGTNVAWFQQKPGKSPKALIYSPSYRYSGVPSRFSGSGSGTDFTLTISSLQPEDFATYFCQQYNSYPHTFGQGTKLEIKRTVAAPSVFIFPPSDEQLKSGTASVVCLLNNFYPREAKVQWKVDNALQSGNSQESVTEQDSKDSTYSLSSTLTLSKADYEKHKVYACEVTHQGLSSPVTKSFNRGEC
notes: Humanized, human IgG1 kappa
In assay [1], B2 gave a Kd of 66 pM, a koff of 0.00019 s⁻¹ and a kon of 3e+06 M⁻¹ s⁻¹.

B3: Hu14F11-47 (antibody, human IgG1, kappa)
heavy: not shown
light: DIQMTQSPSSLSASVGDRVTITCKASQNVGTNVAWFQQKPGKSPKALIYSPSYRYSGVPSRFSGSGSGTDFTLTISSLQPEDFATYFCQQYNSYPHTFGQGTKLEIKRTVAAPSVFIFPPSDEQLKSGTASVVCLLNNFYPREAKVQWKVDNALQSGNSQESVTEQDSKDSTYSLSSTLTLSKADYEKHKVYACEVTHQGLSSPVTKSFNRGEC
notes: Humanized, human IgG1 kappa
As for B3, in assay [1], the Kd is 65 pM, the koff is 0.00018 s⁻¹ and the kon amounted to 3.3e+06 M⁻¹ s⁻¹.

B4: Hu01G06-1 (antibody, human IgG1, kappa)
heavy: not shown
light: DIQMTQSPASLSASVGETVTITCRTSENLHNYLAWYQQKQGKSPQLLVYDAKTLADGVPSRFSGSGSGTQYSLKINSLQPEDFGSYYCQHFWSSPYTFGGGTKLEIKRTVAAPSVFIFPPSDEQLKSGTASVVCLLNNFYPREAKVQWKVDNALQSGNSQESVTEQDSKDSTYSLSSTLTLSKADYEKHKVYACEVTHQGLSSPVTKSFNRGEC
notes: Mouse variable regions, human IgG1 and kappa constant regions; also called Chimeric 01G06; chimeric 01G06 (Hu01G06-1)
For B4, in assay [1], binding was characterised by a dissociation constant (Kd) of 160 pM, the koff was found to be 0.00064 s⁻¹ and the association rate constant (kon) turned out to be 4.2e+06 M⁻¹ s⁻¹. For the same molecule, in assay [2], the Kd was found to be 140 pM, the koff worked out at 0.00071 s⁻¹ and the kon came to 4.9e+06 M⁻¹ s⁻¹.

B5: 17B11 (antibody, mouse IgG1, kappa)
heavy: QVTLKESGPGILQPSQTLSLTCSFSGFSLSTSGMGVSWIRQPSGKGLEWLAHNDWDDDKRYKSSLKSRLTISKDTSRNQVFLKITSVDTADTATYYCARRVGGLEGYFDYWGQGTTLTVSSAKTTPPSVYPLAPGSAAQTNSMVTLGCLVKGYFPEPVTVTWNSGSLSSGVHTFPAVLQSDLYTLSSSVTVPSSTWPSETVTCNVAHPASSTKVDKKIVPRDCGCKPCICTVPEVSSVFIFPPKPKDVLTITLTPKVTCVVVDISKDDPEVQFSWFVDDVEVHTAQTQPREEQFNSTFRSVSELPIMHQDWLNGKEFKCRVNSAAFPAPIEKTISKTKGRPKAPQVYTIPPPKEQMAKDKVSLTCMITDFFPEDITVEWQWNGQPAENYKNTQPIMDTDGSYFVYSKLNVQKSNWEAGNTFTCSVLHEGLHNHHTEKSLSHSPGK
light: DIVLTQSPASLAVSLGQRATISCRASQSVSTSRFSYMHWFQQKPGQAPKLLIKYASNLESGVPARFSGSGSGTDFTLNIHPVEGEDTATYYCQHSWEIPYTFGGGTKLEIKRADAAPTVSIFPPSSEQLTSGGASVVCFLNNFYPKDINVKWKIDGSERQNGVLNSWTDQDSKDSTYSMSSTLTLTKDEYERHNSYTCEATHKTSTSPIVKSFNRNEC
notes: Murine monoclonal from hybridoma, IgG1 kappa; also called antibody 17B11
As to B5, in assay [3], the dissociation constant Kd came to 140 pM, the koff was 0.00051 s⁻¹ and the kon worked out at 3.7e+06 M⁻¹ s⁻¹.

B6: 08G01 (antibody, mouse IgG2b, kappa)
heavy: EVLLQQSGPEVVKPGASVKIPCKASGYTFTDYNMDWVKQSHGKSLEWIGEINPNNGGTFYNQKFKGKATLTVDKSSSTAYMELRSLTSEDTAVYYCAREAITTVGAMDYWGQGTSVTVSSAKTTPPSVYPLAPGCGDTTGSSVTLGCLVKGYFPESVTVTWNSGSLSSSVHTFPALLQSGLYTMSSSVTVPSSTWPSQTVTCSVAHPASSTTVDKKLEPSGPISTINPCPPCKECHKCPAPNLEGGPSVFIFPPNIKDVLMISLTPKVTCVVVDVSEDDPDVQISWFVNNVEVHTAQTQTHREDYNSTIRVVSTLPIQHQDWMSGKEFKCKVNNKDLPSPIERTISKIKGLVRAPQVYILPPPAEQLSRKDVSLTCLVVGFNPGDISVEWTSNGHTEENYKDTAPVLDSDGSYFIYSKLNMKTSKWEKTDSFSCNVRHEGLKNYYLKKTISRSPGK
light: DIQMTQSPASLSASVGETVTITCRASGNIHNYLAWYQQKQGKSPQLLVYNAKTLADGVPSRFSGSGSGTQYSLKINSLQPEDFGSYYCQHFWSSPYTFGGGTKLEIKRADAAPTVSIFPPSSEQLTSGGASVVCFLNNFYPKDINVKWKIDGSERQNGVLNSWTDQDSKDSTYSMSSTLTLTKDEYERHNSYTCEATHKTSTSPIVKSFNRNEC
notes: Murine monoclonal from hybridoma, IgG2b kappa; also called antibody 08G01
Turning to B6, in assay [3], the Kd came to 190 pM, the koff came out at 0.0011 s⁻¹ and the kon was determined as 6e+06 M⁻¹ s⁻¹.

B7: Hu01G06-46 (antibody, human IgG1, kappa)
heavy: not shown
light: DIQMTQSPSSLSASVGDRVTITCRTSENLHNYLAWYQQKPGKSPKLLVYDAKTLADGVPSRFSGSGSGTDYTLTISSLQPEDFATYYCQHFWSSPYTFGQGTKLEIKRTVAAPSVFIFPPSDEQLKSGTASVVCLLNNFYPREAKVQWKVDNALQSGNSQESVTEQDSKDSTYSLSSTLTLSKADYEKHKVYACEVTHQGLSSPVTKSFNRGEC
notes: Humanized, human IgG1 kappa
With B7, in assay [1], the Kd was 110 pM, the koff turned out to be 0.00038 s⁻¹ and the on-rate (kon) worked out at 3.6e+06 M⁻¹ s⁻¹. Also, in assay [2], the affinity, expressed as Kd, was 100 pM; the koff turned out to be 0.00043 s⁻¹; the kon is 4.1e+06 M⁻¹ s⁻¹.

B8: Hu01G06-52 (antibody, human IgG1, kappa)
heavy: not shown
light: DIQMTQSPSSLSASVGDRVTITCRTSENLHNYLAWYQQKPGKSPKLLVYDAKTLADGVPSRFSGSGSGTDYTLTISSLQPEDFATYYCQHFWSSPYTFGQGTKLEIKRTVAAPSVFIFPPSDEQLKSGTASVVCLLNNFYPREAKVQWKVDNALQSGNSQESVTEQDSKDSTYSLSSTLTLSKADYEKHKVYACEVTHQGLSSPVTKSFNRGEC
notes: Humanized, human IgG1 kappa
In assay [1], B8 gave a Kd of 99 pM, a koff of 0.00036 s⁻¹ and an on-rate constant (kon) of 3.6e+06 M⁻¹ s⁻¹. Moreover, in assay [2], the Kd is 89 pM, the koff came to 0.00044 s⁻¹ and the kon turned out to be 5e+06 M⁻¹ s⁻¹.

B9: 04F08 (antibody, mouse IgG1, kappa)
heavy: QVTLKESGPGILQPSQTLSLTCSFSGFSLSTYGMGVTWIRQPSGKGLEWLAHIYWDDDKRYNPSLKSRLTISKDTSNNQVFLKITSVDTADTATYYCAQTGYSNLFAYWGQGTLVTVSAAKTTPPSVYPLAPGSAAQTNSMVTLGCLVKGYFPEPVTVTWNSGSLSSGVHTFPAVLQSDLYTLSSSVTVPSSTWPSETVTCNVAHPASSTKVDKKIVPRDCGCKPCICTVPEVSSVFIFPPKPKDVLTITLTPKVTCVVVDISKDDPEVQFSWFVDDVEVHTAQTQPREEQFNSTFRSVSELPIMHQDWLNGKEFKCRVNSAAFPAPIEKTISKTKGRPKAPQVYTIPPPKEQMAKDKVSLTCMITDFFPEDITVEWQWNGQPAENYKNTQPIMDTDGSYFVYSKLNVQKSNWEAGNTFTCSVLHEGLHNHHTEKSLSHSPGK
light: DIVMTQSQKFMSTSVGDRVSVTCKASQNVGTNVAWYQQKLGQSPKTLIYSASYRYSGVPDRFTGSGSGTDFTLTISNVQSEDLAEYFCQQYNSYPYTFGGGTKLEIKRADAAPTVSIFPPSSEQLTSGGASVVCFLNNFYPKDINVKWKIDGSERQNGVLNSWTDQDSKDSTYSMSSTLTLTKDEYERHNSYTCEATHKTSTSPIVKSFNRNEC
notes: Murine monoclonal from hybridoma, IgG1 kappa; also called antibody 04F08
In assay [3], B9 returned a Kd of 190 pM, a koff of 0.00064 s⁻¹ and a kon of 3.6e+06 M⁻¹ s⁻¹.
